Experimental data taken from article PMC12448354.

Experiments:
[1] = target: human von Willebrand factor (VWF) (human) (UniProt P04275)
[2] = target: Monodelphis domestica von Willebrand factor (VWF), purified from plasma (Monodelphis domestica)

“botrocetin from Bothrops jararaca (purified venom fraction) (complex)” was tested, and the reduction in the overall extent of platelet adhesion to collagen under flow (60 dyn/cm^2), human PRP with 4 ug/mL botrocetin, against the control without venom protein [1] was 66% and the reduction in the overall extent of platelet adhesion to collagen under flow (60 dyn/cm^2), opossum PRP with 4 ug/mL botrocetin, against the control without venom protein [2] was 39%.
